Source: US9187762B2, “Compositions and methods comprising sequences having hydroxyphenylpyruvate dioxygenase (HPPD) activity” (PIONEER HI-BRED INTERNATIONAL, INC., priority 2010, dated 2015)

Key:
T0 soybean plants = experiment: Herbicide spray test of transgenic T0 HPPD soy plants using mesotrione, visual injury; assay type: in vivo; details: mesotrione 210 g ai/ha, eight days after treatment
Description: (1987) Nature 327:70-73, U.S. Pat. No. 4,945,050) using a DuPont Biolistic PDS1000/He instrument. A selectable marker gene used to facilitate soybean transformation was a chimeric gene composed of the 35S promoter from Cauliflower Mosaic Virus (Odell et al. (1985) Nature 313:810-812), the hygromycin phosphotransferase gene from plasmid pJR225 (from E coli; Gritz et al. (1983) Gene 25:179-188) and the 3' region of the nopaline synthase gene from the T-DNA of the Ti plasmid of Agrobacterium tumefaciens. Another selectable marker used to facilitate soybean transformation was a chimeric gene composed of the S-adenosylmethionine synthase (SAMS) promoter (U.S. Pat. […] Pat. […] The selection agent used during the transformation process was either hygromycin or chlorsulfuron depending on the marker gene present. […] Pat. […] (1995) Genetics 139 (2), 921-939; Genbank L05363). In specific constructs, the SCP1 promoter of U.S. Pat. No. 6,072,050 was employed. Bombardments were carried out with linear DNA fragments purified away from any bacterial vector DNA. […] Bombarded soybean embryogenic suspension tissue was cultured for one week in the absence of selection agent, then placed in liquid selection medium for 6 weeks. […] Putative transgenic suspension culture tissue was maintained in selection medium for 3 weeks to obtain enough tissue for plant regeneration. Suspension tissue was matured for 4 weeks using standard procedures; matured somatic embryos were desiccated for 4-7 days and then placed on germination induction medium for 2-4 weeks. Germinated plantlets were transferred to soil in cell pack trays for 3 weeks for acclimatization. Plantlets were potted to 10-inch pots in the greenhouse for evaluation of herbicide resistance. […] Some T0 plants were not sprayed with herbicide and were all advanced to the next generation for testing.

maize HPPD [1] = experiment: ON rate ratio, OFF rate ratio and insensitivity parameter with herbicidal HPPD inhibitors; assay type: biochemical; details: for ON rate ratio: mesotrione 4 uM, 100 uM HPP, 70 to 90 second interval; for OFF ratio / ON ratio / ON × OFF Value: maize HPPD
Description: To devise a parameter for detecting changes in inhibitor binding affinity, KD, one can utilize the relationship between KD and the rates of binding and release of inhibitor to and from the enzyme. [formula] Higher KD (reduced affinity or increased insensitivity) can be attained with a numerically smaller ON rate, a larger OFF rate or both. […] The ratio of the reaction rate with inhibitor to that without inhibitor during the 70 to 90 second interval of the reaction was termed the “ON rate ratio”. […] Incubations with the same concentrations of enzyme but no mesotrione were done in parallel. After 1 hr at room temperature, 5 to 10 ul of the enzyme-inhibitor complex was dispensed into the wells of the assay plate. Reactions were started with the addition of 290 to 295 ul of 25 mM Hepes, pH 7, 2 mM ascorbate, 10 uM FeSO4, 100 uM HPP and 50 nM HGD. The reactions were monitored at 320 nm for 12 min. Reaction velocity accelerates as inhibitor is released from the enzyme until a steady state is reached, during which the reaction velocity is constant. The ratio of the steady state rate in mixtures containing mesotrione (or other herbicidal inhibitor) to the initial velocity of mixtures lacking inhibitor is termed the “OFF rate ratio”. Another parameter to record is the time span required for the reactions with inhibitor to reach the steady state. […] It is not certain that the steady state attained in the OFF rate reactions actually represents an equilibrium where OFF rates are now equal to ON rates. Because substrate and inhibitors bind in the same site, the high concentration of substrate present may competitively trap the inhibitor and prevent it from binding again. To be sure that improvement in ON rates is being taken into account, the ON and OFF rate ratios were multiplied together and the product is termed the “insensitivity parameter”. […] The variants in Table 9 were grouped according to the parameter in which they are improved compared to wild type. The sequence positions are numbered according to the wild-type maize amino acid sequence of SEQ ID 1. Some substitutions are effective in multiple contexts, as discussed in the next section.

maize HPPD [2] = experiment: HPPD activity, coupled assay with HGD at 320 nm; substrate saturation kinetics (KM, kcat); assay type: biochemical
Description: (§1) HPPD catalyzes the conversion of 4-hydroxyphenylpyruvate (HPP) to homogentisate. See, FIG. 1. […] However, the product of the ensuing reaction in tyrosine metabolism, maleylacetoacetate, absorbs strongly at 320 nm. Furthermore, the enzyme catalyzing that reaction is also a dioxygenase having similar mechanism and buffer requirements as HPPD, making homogentisate dioxygenase (HGD) an ideal partner in a coupled assay, as shown.
(§2) The HDG gene from Pseudomonas aeruginosa (Amaya (2004) Arch Biochem Biophys 421, 135-142) was cloned into pVER7062 and electroporated into E. coli strain BL21(DE3). The enzyme was produced by methods similar to those described for HPPD. The purified enzyme has a KM for homogentisate of 23 uM and a kcat of 100/sec, properties highly suited for instantly converting the homogentisate produced by HPPD to maleylacetoacetate.
(§3) HPPD activity was measured by placing an aliquot (e.g., 6 ul) of the substrate HPP at 50-fold the desired final concentration into the wells of a low UV-absorbing assay plate. Reactions were started by adding a mixture (e.g., 294 ul) containing 25 mM Hepes, pH 7, 2 mM ascorbate, 10 uM FeSO4, 1 to 100 uM HPP, 50 nM HGD and 5 to 240 nM HPPD. Absorbance at 320 nm was monitored continuously in a plate-reading spectrophotometer (Spectramax, Molecular Devices).
(§4) The catalytic performance of wild-type HPPD and variants generated by shuffling was assessed by determining the substrate saturation parameters. The Michaelis-Menten kinetics protocol of the Spectramax software was customized for HPP concentrations ranging from 3.33 uM to 100 uM, or up to 1 mM if required. Reaction rates were measured as described above for each concentration of HPP. The software returns values of KM and Vmax using the Lineweaver-Burke transformation of the Michaelis-Menten equation.

soybean HPPD = experiment: HPPD activity, coupled assay with HGD; substrate saturation kinetics (KM, kcat); assay type: biochemical; details: substrate HPP; E. coli-expressed enzyme
Description: as §1, §2, §3, §4
The amino acid substitutions identified during the shuffling and mutagenesis of the maize HPPD gene can be made at analogous positions in other HPPD proteins to improve their insensitivity toward HPPD-inhibiting herbicides. The sequences of native and improved maize HPPD were aligned with those of sorghum (Genbank accession number XP002453359) and soybean (Genbank accession number ABQ96868), and the motif substitutions were designed accordingly, as shown in FIG. 14. The genes designed for improvement were synthesized commercially, inserted into vector pVER7062 and expressed, purified and evaluated as in Example 1.

[3] = Elite soybean control, DNA none
[4] = substrate HPP, E. coli-expressed enzyme

With `CS(=O)(=O)c1ccc(C(=O)C2C(=O)CCCC2=O)c([N+](=O)[O-])c1` [mesotrione] the “Mean Soybean Response (% Injury)” value (T0 soybean plants; [3]) was 88%, the “Soybean % Injury Response Range” value (T0 soybean plants; [3]) was 80-95% and the “Mean Soybean Response (% Injury)” value (T0 soybean plants; Jack soybean control, DNA none) was 87%. For the same molecule, the “Soybean % Injury Response Range” value (T0 soybean plants; Jack soybean control, DNA none) was 75-95%.

B1: Maize wt: synthetic maize wild-type HPPD protein, SEQ ID NO: 1, expressed in E. coli (protein)
chain: MGPTPTAAAAGAAVAAASAAEQAAFRLVGHRNFVRFNPRSDRFHTLAFHHVELWCADAASAAGRFSFGLGAPLAARSDLSTGNSAHASLLLRSGSLSFLFTAPYAHGADAATAALPSFSAAAARRFAADHGLAVRAVALRVADAEDAFRASVAAGARPAFGPVDLGRGFRLAEVELYGDVVLRYVSYPDGAAGEPFLPGFEGVASPGAADYGLSRFDHIVGNVPELAPAAAYFAGFTGFHEFAEFTTEDVGTAESGLNSMVLANNSENVLLPLNEPVHGTKRRSQIQTFLDHHGGPGVQHMALASDDVLRTLREMQARSAMGGFEFMAPPTSDYYDGVRRRAGDVLTEAQIKECQELGVLVDRDDQGVLLQIFTKPVGDRPTLFLEIIQRIGCMEKDEKGQEYQKGGCGGFGKGNFSQLFKSIEDYEKSLEAKQAAAAAAAQGS
modifications: Zea mays
For B1, the “tolerance to mesotrione in T0 soybean plants” value (T0 soybean plants) was “moderate tolerance”, the “Insensitivity parameter (ON rate ratio × OFF rate ratio) relative to that of maize wild-type HPPD” value (maize HPPD [1]; Isoxaflutole (diketonitrile)) was 1.0 and the “Insensitivity parameter (ON rate ratio × OFF rate ratio) relative to that of maize wild-type HPPD” value (maize HPPD [1]; Sulcotrione) was 1.0. The “Insensitivity parameter (ON rate ratio × OFF rate ratio) relative to that of maize wild-type HPPD” value (maize HPPD [1]; Topramezone) was 1.0, the “Triple product (ON rate ratio × OFF rate ratio × kcat), relative to that of maize wild-type HPPD” value (maize HPPD [1]; inhibitor Isoxaflutole (diketonitrile)) was 1.0 and the “Triple product (ON rate ratio × OFF rate ratio × kcat), relative to that of maize wild-type HPPD” value (maize HPPD [1]; inhibitor Mesotrione) was 1.0. The “Triple product (ON rate ratio × OFF rate ratio × kcat), relative to that of maize wild-type HPPD” value (maize HPPD [1]; inhibitor Sulcotrione) was 1.0, the “Triple product (ON rate ratio × OFF rate ratio × kcat), relative to that of maize wild-type HPPD” value (maize HPPD [1]; inhibitor Tembotrione) was 1.0 and the “Triple product (ON rate ratio × OFF rate ratio × kcat), relative to that of maize wild-type HPPD” value (maize HPPD [1]; inhibitor Topramezone) was 1.0. The “Insensitivity parameter (ON rate ratio × OFF rate ratio) relative to that of maize wild-type HPPD” value (maize HPPD [1]; mesotrione) was 1.0, the “ON × OFF × kcat” value (maize HPPD [1]; mesotrione) was 9.88 and the Vmax MT (maximum reaction rate attained with mesotrione in the determination of OFF rate ratio) (maize HPPD [1]; mesotrione) was 52 min⁻¹. The “insensitivity parameter (ON rate ratio × OFF rate ratio)” value (maize HPPD [1]; mesotrione) was 0.049, the ON rate ratio (maize HPPD [1]) was 0.2 and the ON rate ratio (maize HPPD [1]; listed as WT) was 0.19. For the same molecule, the OFF rate ratio (maize HPPD [1]; mesotrione, pre-formed enzyme-inhibitor complex) was 0.26, the “time span to attain steady state in OFF rate reaction” value (maize HPPD [1]; release of mesotrione from pre-formed complex, enzyme 240 nM) was 280 s and the “Insensitivity parameter (ON rate ratio × OFF rate ratio) relative to that of maize wild-type HPPD” value (maize HPPD [1]; tembotrione) was 1.0. For the same molecule, the kcat (maize HPPD [2]; N-terminal truncated variants of maize wild-type HPPD, single measurement) was 166 min⁻¹, the Km (maize HPPD [2]; [4]) was 5.2 µM and the kcat (maize HPPD [2]; [4]) was 207 min⁻¹. For the same molecule, the kcat (maize HPPD [2]; substrate HPP, E. coli-expressed enzyme, listed as wild type) was “about 220 min^−1”.

B2: SEQ ID NO: 1 (protein)
chain: MGPTPTAAAAGAAVAAASAAEQAAFRLVGHRNFVRFNPRSDRFHTLAFHHVELWCADAASAAGRFSFGLGAPLAARSDLSTGNSAHASLLLRSGSLSFLFTAPYAHGADAATAALPSFSAAAARRFAADHGLAVRAVALRVADAEDAFRASVAAGARPAFGPVDLGRGFRLAEVELYGDVVLRYVSYPDGAAGEPFLPGFEGVASPGAADYGLSRFDHIVGNVPELAPAAAYFAGFTGFHEFAEFTTEDVGTAESGLNSMVLANNSENVLLPLNEPVHGTKRRSQIQTFLDHHGGPGVQHMALASDDVLRTLREMQARSAMGGFEFMAPPTSDYYDGVRRRAGDVLTEAQIKECQELGVLVDRDDQGVLLQIFTKPVGDRPTLFLEIIQRIGCMEKDEKGQEYQKGGCGGFGKGNFSQLFKSIEDYEKSLEAKQAAAAAAAQGS
modifications: Zea mays
In the case of B2, the OFF ratio (maize HPPD [1]; Mesotrione) is reported as 0.255, the ON ratio (maize HPPD [1]; Mesotrione) is reported as 0.189 and the “ON × OFF Value” (maize HPPD [1]; Mesotrione) is reported as 0.048. For the same molecule, the OFF ratio (maize HPPD [1]; Tembotrione) was 0.037, the ON ratio (maize HPPD [1]; Tembotrione) was 0.232 and the “ON × OFF Value” (maize HPPD [1]; Tembotrione) was 0.0087. It also gave a Km (maize HPPD [2]; maize HPPD, wt and variant) of 5.2 µM and a kcat (maize HPPD [2]; maize HPPD, wt and variant) of 201.

B3: Soy wt: wild-type soybean HPPD protein, SEQ ID NO: 2, expressed in E. coli (protein)
chain: MAIPMCNEIQAQAQAQAQAQPGFKLVGFKNFVRTNPKSDRFQVNRFHHIEFWCTDATNASRRFSWGLGMPIVAKSDLSTGNQIHASYLLRSGDLSFLFSAPYSPSLSAGSSAASSASIPSFDAATCLAFAAKHGFGVRAIALEVADAEAAFSASVAKGAEPASPPVLVDDRTGFAEVRLYGDVVLRYVSYKDAAPQAPHADPSRWFLPGFEAAASSSSFPELDYGIRRLDHAVGNVPELAPAVRYLKGFSGFHEFAEFTAEDVGTSESGLNSVVLANNSETVLLPLNEPVYGTKRKSQIETYLEHNEGAGVQHLALVTHDIFTTLREMRKRSFLGGFEFMPSPPPTYYANLHNRAADVLTVDQIKQCEELGILVDRDDQGTLLQIFTKPVGDRPTIFIEIIQRIGCMVEDEEGKVYQKGACGGFGKGNFSELFKSIEEYEKTLEAKRTA
modifications: Glycine max
With B3 the Km (soybean HPPD) was 3 µM and the kcat (soybean HPPD) was 1.67 s⁻¹.

B4: D0223961: shuffled maize HPPD variant used for chloroplast transformation (protein)
chain: MGPTPTATAAGAAVAAASAAEQAAFRLVGHRNFVRFNPRSDRFHTLAFHHVELWCADAASAAGRFSFALGAPLAARSDLSTGNSAHASLLLRSGSLSFLFTAPYAHGADAATAALPSFSAAAARRFAADHGLAVRAVALRVADAEDAFRASVAAGARPAFGPVDLGRGFRLAEVELYGDVVLRYVSYPDGAAGEPFLPGFEGVASPGAADYGLSRFDHIVGNVPELAPAAAYFAGFTGFHEFAEFTTEDVGTAESGLNSMALANNSENVLLPLNEPVHGTKRRSQIQTFLDHHGGPGVQHIALASDDVLRTLREMQARSAMGGFEFLPPPPSDYYDGVRRCAGDVLTEAQINECQELGVMVDRDDQGVLLQIFTKPVGDRPTFFLEIIQRIGCMEKDEKGQEYQKGGCGGFGKKNFGQLFKSIEDYEKSLEAKQAAAAATAQGS
modifications: HPPD variant
notes: shuffled maize HPPD variant used for chloroplast transformation
With B4 the “Soybean % Injury Response Range” value (T0 soybean plants; T0 soybean plants expressing the HPPD gene variant (per DNA construct)) was 0-80%, the “Mean Soybean Response (% Injury)” value (T0 soybean plants; T0 soybean plants expressing the HPPD gene variant (per DNA construct), 0=no effect, 100=dead plant) was 26% and the kcat (maize HPPD [2]; variants truncated to ala20 vs full length) was 106 ± 12.4 min⁻¹.
